Assay results taken from patent US20250076311A1 (Chugai, published 2025).

Experiments:
Experiment in all cases: SPR (Biacore), 25C, FcgR bound per antibody captured
[1] = molecular target: T1, cynomolgus monkey FcγRIIa1 extracellular domain, His-tagged (cynomolgus monkey)
T1 construct: also called cyno FcgRIIa1
T1 chain: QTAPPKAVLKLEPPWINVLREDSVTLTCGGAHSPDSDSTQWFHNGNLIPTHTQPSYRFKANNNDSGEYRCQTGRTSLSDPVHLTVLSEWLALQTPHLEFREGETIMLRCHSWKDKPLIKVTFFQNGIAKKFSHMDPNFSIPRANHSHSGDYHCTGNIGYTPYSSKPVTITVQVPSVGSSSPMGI
Method: (§1) In the next step, cross-reactivity of these substitutions to cynoFcγRs was evaluated.
(§2) The value of the amount of FcγR binding was obtained by dividing the amount of FcγR bound by the amount of each antibody captured.

[2] = molecular target: T2, cynomolgus monkey FcγRIIa2 extracellular domain, His-tagged (cynomolgus monkey)
T2 construct: also called cyno FcgRIIa2
T2 chain: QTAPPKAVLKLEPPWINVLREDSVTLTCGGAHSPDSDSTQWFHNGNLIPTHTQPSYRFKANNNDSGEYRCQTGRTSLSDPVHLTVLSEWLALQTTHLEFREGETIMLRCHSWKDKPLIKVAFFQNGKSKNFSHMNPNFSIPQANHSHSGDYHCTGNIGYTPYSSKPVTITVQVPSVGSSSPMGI
Method: as §1, §2

[3] = molecular target: T3, cynomolgus monkey FcγRIIa3 extracellular domain, His-tagged (cynomolgus monkey)
T3 construct: also called cyno FcgRIIa3
T3 chain: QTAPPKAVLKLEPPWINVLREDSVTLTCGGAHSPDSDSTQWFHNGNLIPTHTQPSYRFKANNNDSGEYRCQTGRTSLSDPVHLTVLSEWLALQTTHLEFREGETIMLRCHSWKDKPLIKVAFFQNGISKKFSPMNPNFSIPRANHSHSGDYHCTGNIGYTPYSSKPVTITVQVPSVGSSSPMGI
Method: as §1, §2

[4] = molecular target: T4, cynomolgus monkey FcγRIIb extracellular domain, His-tagged (cynomolgus monkey)
T4 construct: also called cyno FcgRIIb
T4 chain: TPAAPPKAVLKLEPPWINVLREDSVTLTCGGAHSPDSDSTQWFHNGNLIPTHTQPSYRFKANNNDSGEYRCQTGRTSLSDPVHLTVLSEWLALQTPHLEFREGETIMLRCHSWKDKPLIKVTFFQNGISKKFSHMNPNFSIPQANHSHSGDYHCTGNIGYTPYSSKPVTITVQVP
Method: as §1, §2

[5] = molecular target: T5, cynomolgus monkey FcγRIIIaS extracellular domain, His-tagged (cynomolgus monkey, UniProt Q8SPW2 21-206 at identity 1.00))
T5 construct: also called cyno FcgRIIIaS
T5 chain: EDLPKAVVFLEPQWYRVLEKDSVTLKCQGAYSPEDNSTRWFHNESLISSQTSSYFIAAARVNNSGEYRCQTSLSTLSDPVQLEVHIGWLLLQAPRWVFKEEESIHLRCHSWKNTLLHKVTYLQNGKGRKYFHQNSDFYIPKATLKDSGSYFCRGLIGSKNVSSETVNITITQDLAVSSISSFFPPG
Method: as §1, §2

Binding to cynoFcgRs (SG1 = 100) [1]	Binding to cynoFcgRs (SG1 = 100) [2]	Binding to cynoFcgRs (SG1 = 100) [3]	Binding to cynoFcgRs (SG1 = 100) [4]	Binding to cynoFcgRs (SG1 = 100) [5]	Binder
83	86	62	85	15	M103205H795-MY001 / M103202L889-SK1 (antibody, human IgG1, kappa, name in EU numbering, also called G236N) heavy: not shown light: DIVMTQSPATLSLSPGERATLSCTSSQSVYHANWLSWFQQKPGQPPKLLIYWASTLAYGVPSRFSGSGSGTDFTLTISSLQPEDAATYYCAGGYGGGRYAFGQGTKVEIKRTVAAPSVFIFPPSDEQLKSGTASVVCLLNNFYPREAKVQWKVDNALQSGNSQESVTEQDSKDSTYSLSSTLTLSKADYEKHKVYACEVTHQGLSSPVTKSFNRGEC
18	17	30	30	7	M103205H795-SG165 / M103202L889-SK1 (antibody, human IgG1, kappa, name in EU numbering, also called G237Y) heavy: not shown light: DIVMTQSPATLSLSPGERATLSCTSSQSVYHANWLSWFQQKPGQPPKLLIYWASTLAYGVPSRFSGSGSGTDFTLTISSLQPEDAATYYCAGGYGGGRYAFGQGTKVEIKRTVAAPSVFIFPPSDEQLKSGTASVVCLLNNFYPREAKVQWKVDNALQSGNSQESVTEQDSKDSTYSLSSTLTLSKADYEKHKVYACEVTHQGLSSPVTKSFNRGEC
10	10	17	–	5	M103205H795-SG166 / M103202L889-SK1 (antibody, human IgG1, kappa, name in EU numbering, also called G237D) heavy: not shown light: DIVMTQSPATLSLSPGERATLSCTSSQSVYHANWLSWFQQKPGQPPKLLIYWASTLAYGVPSRFSGSGSGTDFTLTISSLQPEDAATYYCAGGYGGGRYAFGQGTKVEIKRTVAAPSVFIFPPSDEQLKSGTASVVCLLNNFYPREAKVQWKVDNALQSGNSQESVTEQDSKDSTYSLSSTLTLSKADYEKHKVYACEVTHQGLSSPVTKSFNRGEC
18	14	38	22	14	M103205H795-SG167 / M103202L889-SK1 (antibody, human IgG1, kappa, name in EU numbering, also called P238Y) heavy: not shown light: DIVMTQSPATLSLSPGERATLSCTSSQSVYHANWLSWFQQKPGQPPKLLIYWASTLAYGVPSRFSGSGSGTDFTLTISSLQPEDAATYYCAGGYGGGRYAFGQGTKVEIKRTVAAPSVFIFPPSDEQLKSGTASVVCLLNNFYPREAKVQWKVDNALQSGNSQESVTEQDSKDSTYSLSSTLTLSKADYEKHKVYACEVTHQGLSSPVTKSFNRGEC
21	16	30	28	13	M103205H795-SG168 / M103202L889-SK1 (antibody, human IgG1, kappa, name in EU numbering, also called P238E) heavy: not shown light: DIVMTQSPATLSLSPGERATLSCTSSQSVYHANWLSWFQQKPGQPPKLLIYWASTLAYGVPSRFSGSGSGTDFTLTISSLQPEDAATYYCAGGYGGGRYAFGQGTKVEIKRTVAAPSVFIFPPSDEQLKSGTASVVCLLNNFYPREAKVQWKVDNALQSGNSQESVTEQDSKDSTYSLSSTLTLSKADYEKHKVYACEVTHQGLSSPVTKSFNRGEC
17	16	32	22	22	M103205H795-SG169 / M103202L889-SK1 (antibody, human IgG1, kappa, name in EU numbering, also called P238M) heavy: not shown light: DIVMTQSPATLSLSPGERATLSCTSSQSVYHANWLSWFQQKPGQPPKLLIYWASTLAYGVPSRFSGSGSGTDFTLTISSLQPEDAATYYCAGGYGGGRYAFGQGTKVEIKRTVAAPSVFIFPPSDEQLKSGTASVVCLLNNFYPREAKVQWKVDNALQSGNSQESVTEQDSKDSTYSLSSTLTLSKADYEKHKVYACEVTHQGLSSPVTKSFNRGEC
